Laboratory results published in patent publication US20260209386A1 (MYTHIC THERAPEUTICS, published 2026).
Where a chain is given by its changes, count along the chain named.

B1: MYT11154 (antibody, V domains shown)
VH: EVQLVESGGGLVQPGGSLRLSCTASGFSLSTYAMSWVRQAPGKGLEWVGMIYINDNTYYASWAKGRFTISRDTSKNTVYLQMNSLRAEDTAVYFCARDIGISYYIGVSLWGQGTLVTVSS
VL: EIVMTQSPSTLSASVGDRVIITCQASQSIGTRHSWYQQKPGKAPKLLIYGASKLATGVPSRFSGSGSGAEFTLTISSLQPDDFATYYCLGEYSYTTTDGIAFGQGTKLTVL
notes: MYT9412 LC variant
B2: MYT11175 (antibody, V domains shown)
VH: B1 VH
VL: B1 VL with H33L, A101H
notes: MYT9412 LC variant
B3: MYT11170 (antibody, V domains shown)
VH: B1 VH
VL: B1 VL with H33L, T96H
notes: MYT9412 LC variant
B4: MYT11155 (antibody, V domains shown)
VH: B1 VH
VL: B1 VL with H33L, S34H
notes: MYT9412 LC variant
B5: MYT11169 (antibody, V domains shown)
VH: B1 VH
VL: B1 VL with H33L, T95H
notes: MYT9412 LC variant
B6: MYT11167 (antibody, V domains shown)
VH: B1 VH
VL: B1 VL with H33L, S93H
notes: MYT9412 LC variant
B7: MYT11173 (antibody, V domains shown)
VH: B1 VH
VL: B1 VL with H33L, G99H
notes: MYT9412 LC variant
B8: MYT11157 (antibody, V domains shown)
VH: B1 VH
VL: B1 VL with H33L, A51H
notes: MYT9412 LC variant
B9: MYT11158 (antibody, V domains shown)
VH: B1 VH
VL: B1 VL with H33L, S52H
notes: MYT9412 LC variant
B10: MYT11164 (antibody, V domains shown)
VH: B1 VH
VL: B1 VL with H33L, G90H
notes: MYT9412 LC variant
B11: MYT11168 (antibody, V domains shown)
VH: B1 VH
VL: B1 VL with H33L, Y94H
notes: MYT9412 LC variant
B12: MYT11156 (antibody, V domains shown)
VH: B1 VH
VL: B1 VL with H33L, G50H
notes: MYT9412 LC variant
B13: MYT11171 (antibody, V domains shown)
VH: B1 VH
VL: B1 VL with H33L, T97H
notes: MYT9412 LC variant
B14: MYT11162 (antibody, V domains shown)
VH: B1 VH
VL: B1 VL with H33L, T56H
notes: MYT9412 LC variant
B15: MYT11160 (antibody, V domains shown)
VH: B1 VH
VL: B1 VL with H33L, L54H
notes: MYT9412 LC variant
B16: MYT11161 (antibody, V domains shown)
VH: B1 VH
VL: B1 VL with H33L, A55H
notes: MYT9412 LC variant
B17: MYT11179 (antibody, V domains shown)
VH: B1 VH
VL: B1 VL with H33L, E91A
notes: MYT9412 LC alanine variant
B18: MYT11159 (antibody, V domains shown)
VH: B1 VH
VL: B1 VL with H33L, K53H
notes: MYT9412 LC variant
B19: MYT11256 (antibody, V domains shown)
VH: EVQLVESGGGLVQPGGSLRLSCTASGIHLSRYSMGWVRQAPGKGLEWVGIISYGGSTYYASWAKGRFTISRDTSKNTVYLQMNSLRAEDTAVYFCARVGYPGYSGYGYAFDAFDPWGQGTLVTVSS
VL: EIVMTQSPSTLSASVGDRVIITCQSSKSVYNDNWLSWYQQKPGKAPKLLIYGASTLASGVPSRFSGSGSGAEFTLTISSLQPDDFATYYCAGGYSSSSDNGFGQGTKLTVL
notes: MYT9792 variant, His at VH 28 (H1 03)
B20: MYT11273 (antibody, V domains shown)
VH: B19 VH with H28D, Y59H
VL: B19 VL
notes: MYT9792 variant, His at VH 59 (H2 10)
B21: MYT11270 (antibody, V domains shown)
VH: B19 VH with H28D, S56H
VL: B19 VL
notes: MYT9792 variant, His at VH 56 (H2 07)
B22: MYT11274 (antibody, V domains shown)
VH: B19 VH with H28D, A60H
VL: B19 VL
notes: MYT9792 variant, His at VH 60 (H2 11)
B23: MYT11262 (antibody, V domains shown)
VH: B19 VH with H28D, M34H
VL: B19 VL
notes: MYT9792 variant, His at VH 34 (H1 09)
B24: MYT11255 (antibody, V domains shown)
VH: B19 VH with I27H, H28D
VL: B19 VL
notes: MYT9792 variant, His at VH 27 (H1 02)
B25: MYT11265 (antibody, V domains shown)
VH: B19 VH with H28D, I51H
VL: B19 VL
notes: MYT9792 variant, His at VH 51 (H2 02)
B26: MYT11266 (antibody, V domains shown)
VH: B19 VH with H28D, S52H
VL: B19 VL
notes: MYT9792 variant, His at VH 52 (H2 03)
B27: MYT11269 (antibody, V domains shown)
VH: B19 VH with H28D, G55H
VL: B19 VL
notes: MYT9792 variant, His at VH 55 (H2 06)
B28: MYT11254 (antibody, V domains shown)
VH: B19 VH with G26H, H28D
VL: B19 VL
notes: MYT9792 variant, His at VH 26 (H1 01)
B29: MYT11268 (antibody, V domains shown)
VH: B19 VH with H28D, G54H
VL: B19 VL
notes: MYT9792 variant, His at VH 54 (H2 05)
B30: MYT11260 (antibody, V domains shown)
VH: B19 VH with H28D, Y32H
VL: B19 VL
notes: MYT9792 variant, His at VH 32 (H1 07)

The binders below were run against T1, Human PTK7 Protein, His Tag, Acro Biosystems (human, UniProt Q13308 31-704) (assay: BLI, anti-human Fc capture, 50 nM PTK7; 2 = substantially similar binding relative to parent).
T1 construct: Bought recombinant protein; also called CCK4; not shown: His tag
T1 sequence: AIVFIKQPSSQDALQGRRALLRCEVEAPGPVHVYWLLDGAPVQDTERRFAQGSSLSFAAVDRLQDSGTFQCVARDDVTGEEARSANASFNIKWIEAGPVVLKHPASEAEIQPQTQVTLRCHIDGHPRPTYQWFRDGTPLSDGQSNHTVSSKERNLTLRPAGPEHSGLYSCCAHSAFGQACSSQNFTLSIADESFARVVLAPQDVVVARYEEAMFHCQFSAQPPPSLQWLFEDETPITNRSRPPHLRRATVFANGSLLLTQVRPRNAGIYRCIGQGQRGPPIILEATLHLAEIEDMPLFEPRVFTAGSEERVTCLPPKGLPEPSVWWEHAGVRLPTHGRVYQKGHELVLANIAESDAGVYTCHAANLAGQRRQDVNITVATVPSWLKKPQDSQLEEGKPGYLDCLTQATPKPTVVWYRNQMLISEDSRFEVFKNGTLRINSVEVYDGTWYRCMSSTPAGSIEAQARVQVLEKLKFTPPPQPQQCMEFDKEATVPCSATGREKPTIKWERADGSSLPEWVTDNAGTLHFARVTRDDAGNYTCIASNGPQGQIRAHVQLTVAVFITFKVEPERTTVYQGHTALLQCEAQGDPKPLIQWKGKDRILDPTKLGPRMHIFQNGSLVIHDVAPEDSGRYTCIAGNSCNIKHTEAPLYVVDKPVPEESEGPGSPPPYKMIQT

Binding result, binds:
B1, B2, B3, B4, B5, B6, B7, B8, B9, B10, B11, B12, B13, B14, B15, B16, B17, B18

The binders below were run against T2, Human PTK7 Protein, His Tag, Acro Biosystems (human, UniProt Q13308 31-704) in the same assay as above.
T2 construct: Bought recombinant protein; also called CCK4; not shown: His tag
T2 sequence: T1 sequence

Binding result, binds:
B19, B20, B21, B22, B23, B24, B25, B26, B27, B28, B29, B30
